Assay results published in patent publication US6436691B1, “Chemical compounds” (Zeneca Limited, priority 1995, dated 2002).
Positions count from the first letter of the chain named. Names and notes keep the numbering of the source.

B1: [A248S,G251T,D253K]HCPB: HCPB mutant with A248S, G251T and D253K, (His)6-c-myc tag (protein, UniProt P15086 111-417, looked up, variant A248S G251T D253K)
Carboxypeptidase B: ATGHSYEKYNKWETIEAWTQQVATENPALISRSVIGTTFEGRAIYLLKVGKAGQNKPAIFMDCGFHAREWISPAFCQWFVREAVRTYGREIQVTELLDKLDFYVLPVLNIDGYIYTWTKSRFWRKTRSTHTGSSCIGTDPNRNFDAGWCEIGASRNPCDETYCGPAAESEKETKALADFIRNKLSSIKAYLTIHSYSQMMIYPYSYAYKLGENNAELNALAKATVKELASLHGTKYTYGPGATTIYPSAGTSKDWAYDQGIRYSFTFELRDTGRYGFLLPESQIRATCEETFLAIKYVASYVLEHLY
modifications: (His)6-c-myc tag
B2: [A248H, D253K]: HCPB mutant with A248H and D253K (protein, UniProt P15086 111-417, looked up, variant A248H D253K)
Carboxypeptidase B: B1 Carboxypeptidase B with S248H, T251G
B3: [I245H, D253K]: HCPB mutant with I245H and D253K (protein, UniProt P15086 111-417, looked up, variant I245H D253K)
Carboxypeptidase B: B1 Carboxypeptidase B with I245H, S248A, T251G
B4: [G251K, D253R]: HCPB mutant with G251K and D253R (protein, UniProt P15086 111-417, looked up, variant G251K D253R)
Carboxypeptidase B: B1 Carboxypeptidase B with S248A, T251K, K253R
B5: [G251N,D253R]: HCPB mutant with G251N and D253R, (His)6-c-myc tag (protein, UniProt P15086 111-417, looked up, variant G251N D253R)
Carboxypeptidase B: B1 Carboxypeptidase B with S248A, T251N, K253R
modifications: (His)6-c-myc tag
B6: [G251T,D253R]HCPB: HCPB mutant with G251T and D253R, (His)6-c-myc tag (protein, UniProt P15086 111-417, looked up, variant G251T D253R)
Carboxypeptidase B: B1 Carboxypeptidase B with S248A, K253R
modifications: (His)6-c-myc tag
B7: [A248S, G251S, D253K]: HCPB mutant with A248S, G251S and D253K (protein, UniProt P15086 111-417, looked up, variant A248S G251S D253K)
Carboxypeptidase B: B1 Carboxypeptidase B with T251S
B8: [G251N,D253K]: HCPB mutant with G251N and D253K, (His)6-c-myc tag (protein, UniProt P15086 111-417, looked up, variant G251N D253K)
Carboxypeptidase B: B1 Carboxypeptidase B with S248A, T251N
modifications: (His)6-c-myc tag
B9: [G251Q, D253K]: HCPB mutant with G251Q and D253K (protein, UniProt P15086 111-417, looked up, variant G251Q D253K)
Carboxypeptidase B: B1 Carboxypeptidase B with S248A, T251Q
B10: [G251V, D253K]: HCPB mutant with G251V and D253K (protein, UniProt P15086 111-417, looked up, variant G251V D253K)
Carboxypeptidase B: B1 Carboxypeptidase B with S248A, T251V

Key:
Type in all cases: biochemical
[1] = Conversion of Hipp-Arg by purified HCPB mutants, 30 minutes, HPLC (Example 17); conditions: 0.5 mM substrate, 30 minutes at 37° C.
Procedure: (§1) Purified mutants of human CPB (D253K; [G251K,D253R]; [G251N,D253R]; [I201S,D253K]; [G251N,D253K]; [Q54R,D145A,D253K]; [G251T,D253K]; [G251S,D253K]; [A248N,G251N,D253K]; [A248S,G251N,D253K] and [S205N,G251N,D253K]—described in Examples 3, 12, 13, 16, 28, 30, 31, 32 and 33) were assayed for their ability to convert hippuryl-L-glutamic acid (Hipp-Glu—Reference Example 1), hippuryl-L-aspartic acid (Hipp-Asp—Reference Example 2) and hippuryl-L-arginine (Sigma Chemical Company—cat no. H6625) to hippuric acid using a HPLC based assay similar to that described in Example 6.
(§2) Samples were incubated for 30 minutes at 37° C. The reactions were terminated by the addition of 500 μl of 40% methanol, 60% distilled water, 0.2% trifluoro acetic acid and the amount of hippuric acid generated was quantitated by HPLC as described in Example 6 but using a mobile phase of 20% methanol, 80% 50 mM phosphate buffer, pH 6.5. Hippuric acid was detected at 230 nm. The results are shown in Table 5 and are expressed as the percentage conversion of substrate into product in 30 minutes at 37° C.

[2] = Conversion of Hipp-Asp by purified HCPB mutants, 30 minutes, HPLC (Example 17); conditions: 0.5 mM substrate, 30 minutes at 37° C.
Procedure: as §1, §2

[3] = Conversion of Hipp-Glu by purified HCPB mutants, 30 minutes, HPLC (Example 17); conditions: 0.5 mM substrate, 30 minutes at 37° C.
Procedure: as §1, §2

[4] = Conversion of Hipp-Asp by periplasmic shockate of HCPB mutants, 24 h (Example 18); conditions: shockate concentration in reaction mixture 50 %; 24 h at 37° C.
Procedure: (§3) The activity of [G251T,D253K]HCPB was measured using the assay conditions described in Example 17 but using either 50 μl of a neat or 1 in 10 or 1 in 100 dilution of [G251T,D253K]HCPB crude E.coli periplasmic shockate (shockate) sample in place of purified enzyme. Samples were incubated for 24 h at 37° C. […] For other HCPB mutants, the reaction volume was 250 μl and contained 125 μl of neat shockate or 1 in 50 dilution of shockate. The shockate samples were prepared as described in Example 16. The amount of Hippuric acid produced in 24 h was quantified by HPLC as described in Example 17 and the results are shown in Table 6 and are expressed as the percentage conversion of substrate into product in 24 h at 37° C.

[5] = Km and kcat of HCPB mutants with Hipp-Glu (Example 7); conditions: Hipp-Glu 0.25-8.0 mM; pH 7.5; 5 h at 37° C.
Procedure: (§4) Hipp-Glu and Hipp-Asp were diluted in range 0.25-8.0 mM and 0.25-5.0 mM respectively in 0.025 M Tris-HCL buffer, pH 7.5. Where necessary substrate samples were adjusted to pH 7.5 with 1M NaOH.
(§5) Samples were incubated for 5 h at 37° C. Reactions were terminated by the addition of 500 μl methanol/distilled water (80/20) containing 0.2% TFA. The amount of hippuric acid produced was quantified by HPLC as described in Example 6.
(§6) Km and Vmax values were calculated using the ENZFITTER software programme (Biosoft, Perkin Elmer).

[6] = Conversion of Hipp-Glu by periplasmic shockate of HCPB mutants, 24 h (Example 18); conditions: 24 h at 37° C.
Procedure: as §3

[7] = Activity against Hipp-Asp in crude E. coli periplasmic shockate relative to D253K or D253R HCPB (Example 16)
Source text: A number of other mutant HCPBs have been constructed in a similar manner to the methods described in Reference Examples 7 and 8, and Examples 12, 13, 14 and 15. In each case oligos were constructed to introduce specific changes in the gene sequence by methods similar to those described above. In some cases additional mutations were identified upon complete sequencing of the mutated gene, and these were presumably introduced during the PCR reactions. Mutants with enzyme activity against substrate analogues (see Example 18 below) have been identified, and examples of these are given in Table 4 below. […] This material is subsequently referred to as periplasmic shockate or shockate and is prepared by the following procedure.
1. A single colony was used to inoculate 75 ml of L-broth nutrient media containing 10 μg/ml tetracycline and arabinose to a final concentration of 0.01% (w/v). Incubation was performed at 20° C. with shaking (250 rpm) for about 60 hours.
2. The cells were then harvested by centrifugation at 4° C.
3. The cell pellet was re-suspended in 300 micro-liters of 20% sucrose (w/v) containing 1 mM EDTA in 200 mM Tris-HCl at pH7.5, and incubated at room-temperature for 15 minutes.
4. Periplasmic shockate was generated by the addition of 450 micro-liters of distilled water, and a further incubation at room-temperature for 15 minutes.
5. Cellular remains were removed by centrifugation, and the supernatant assayed for enzyme activity as soon as possible after preparation and kept at 4° C. prior to assay.
as §3

[8] = Conversion of prodrug of Example 24 to drug of Example 25 by HCPB mutants, HPLC (Example 20); conditions: enzyme 15 μg/ml; 0.5 mM prodrug of Example 24; 5 minutes at 37° C.
Procedure: The reaction was stopped by adding MeCN (500 μl) plus 0.2% Trifluoroacetic acid. The amount of drug produced was then quantified by HPLC.
HPLC separation was carried out as described in Example 6 except that a mobile phase of 70% MeCN, 30% distilled water and 0.1% trifluoroacetic acid was used to achieve separation of prodrug (retention time 3.8 minutes) and drug (retention time 4.9 minutes) and the compounds were detected at 260 nm. The amount of drug produced was quantified from calibration curves generated with known amounts of drug.
The amount of [Q54R,D145A,D253K]HCPB and [G251T,D253K]HCPB mutants was reduced to 0.75 μg in the reaction mixture.

[9] = Km and kcat of HCPB mutants with Hipp-Asp (Example 7); conditions: Hipp-Asp 0.25-5.0 mM; pH 7.5; 5 h at 37° C.
Procedure: as §4, §5, §6

[10] = shockate concentration in reaction mixture 50 %

Row | Molecule | Hipp-Arg (% conversion) ([1]; enzyme 25 μg/ml) | Hipp-Asp (% conversion) ([2]; enzyme 25 μg/ml) | Hipp-Glu (% conversion) ([3]; enzyme 25 μg/ml) | Km [5] | kcat, Hipp-Glu [5] | Hipp-Asp, activity relative to D253K HCPB or D253R HCPB [7] | Hipp-Arg (% conversion) ([1]; enzyme 2.5 μg/ml) | Hipp-Asp (% conversion) ([2]; enzyme 2.5 μg/ml) | Hipp-Glu (% conversion) ([3]; enzyme 2.5 μg/ml) | Prodrug Hydrolysis (%) [8] | also measured
1 | B1 | 0% | 5.5% | 93% | 1100 µM | 19 s⁻¹ |  |  |  |  |  | Hipp-Arg (% conversion) ([1]; enzyme 0.25 μg/ml): 0%; Hipp-Asp (% conversion) ([2]; enzyme 0.25 μg/ml): 0%; Hipp-Glu (% conversion) ([3]; enzyme 0.25 μg/ml): 14.5%; Hipp-Asp (% conversion) [4]: 0.5%; Hipp-Glu (% conversion) ([6]; shockate concentration in reaction mixture 1 %): 20%; Hipp-Glu (% conversion) [6, 10]: 91.3%
2 | B2 |  |  |  |  |  | NAD (No activity detected) |  |  |  |  | 
3 | B3 |  |  |  |  |  | NAD (No activity detected) |  |  |  |  | 
4 | B4 | 0% | 0.2% | 5.5% |  |  | NAD (No activity detected) | 0% | 0.2% | 3.2% | 16.2% | 
5 | B5 | 0% | 9.4% | 57% |  |  |  | 0% | 1.4% | 8.8% | 66.7% | 
6 | B6 | 0% | 29% | 96% | 1600 µM | 7.8 s⁻¹ |  |  |  |  |  | Km [9]: 1700 µM; kcat, Hipp-Asp [9]: 0.7 s⁻¹; Hipp-Arg (% conversion) ([1]; enzyme 1 μg/ml): 0%; Hipp-Asp (% conversion) ([2]; enzyme 1 μg/ml): 1.2%; Hipp-Glu (% conversion) ([3]; enzyme 1 μg/ml): 16.2%; Hipp-Asp (% conversion) [4]: 14.6%; Hipp-Glu (% conversion) [6, 10]: 65.4%
7 | B7 |  |  |  |  |  | NAD (No activity detected) |  |  |  |  | 
8 | B8 | 1.8% | 8.3% | 100% | 2300 µM | 24 s⁻¹ |  | 0.4% | 1.9% | 62.4% | 75.9% | 
9 | B9 |  |  |  |  |  | NAD (No activity detected) |  |  |  |  | 
10 | B10 |  |  |  |  |  | NAD (No activity detected) |  |  |  |  | 
